According to patent US20180362632A1 (published 2018):
Residue numbers refer to the chain shown, from its start. “And” between values parts separate entries of the source, which are not always exact repeats. Equal values may be shown once. Read-outs that look alike come from different tables or passages of the source. Each block holds one binder with its values, some of them ahead of it.

How the values were obtained:
Experiment in all cases: ELISA
[1] = biological target: T1, recombinant human GM-CSF protein (human, UniProt P04141 18-144)
[2] = biological target: T1, recombinant human GM-CSF protein; remark: listed apart in the source
[3] = biological target: T1, recombinant human GM-CSF protein; remark: listed apart in the source
[4] = biological target: T1, recombinant human GM-CSF protein; remark: listed apart in the source

T1 sequence (P04141 18-144): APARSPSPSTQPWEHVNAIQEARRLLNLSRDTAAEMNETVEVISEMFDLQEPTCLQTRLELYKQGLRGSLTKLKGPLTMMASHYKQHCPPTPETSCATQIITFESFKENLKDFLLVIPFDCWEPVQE

B4: Hu50C5-18 (antibody, V domains shown)
VH: EVQLVQSGAEVKKPGSSVKVSCKASGYIFSPYSIHWVRQAPGQGLEWIGYINPSTGYIEYNQHFKDRTTLTADKSTSTAYMELRSLRSEDTAVYYCARGGDYEGYFDYWGQGTTVTVSS
VL: DIQMTQSPSSLSASVGDRVTITCRLNENIYSFLAWYQQKPGKAPKLLVYNAETLAEDVPSRFSGSGSGTDFTLTISSLQPEDFATYYCQQHYGTPYTFGGGTKVEIK
EC50 [2]: 0.612 nM

B5: Hu50C5-7 (antibody, V domains shown)
VH: B4 VH with I48M, T68V, L70I
VL: B4 VL with D57G
EC50 [1]: 0.844 nM

B8: Hu50C5-1 (antibody, V domains shown)
VH: B4 VH with Y27G, I28T, I48M, T68V, L70I
VL: B4 VL with V48I, D57G
EC50 [1]: 2.75 nM

B11: Hu50C5-16 (antibody, V domains shown)
VH: B4 VH
VL: B4 VL with V48I, D57G
EC50 [2]: 0.46 nM

B13: Hu50C5-17 (antibody, V domains shown)
VH: B4 VH
VL: B4 VL with D57G
EC50 [2]: 0.215 nM

B14: Hu50C5-21 (antibody, V domains shown)
VH: B4 VH with S30T
VL: B4 VL with V48I, D57G
EC50 [2]: 0.339 nM

B16: Hu50C5-2 (antibody, V domains shown)
VH: B4 VH with Y27G, I28T, I48M, T68V, L70I
VL: B4 VL with D57G
EC50 [1]: 2.19 nM

B17: Hu50C5-24 (antibody, V domains shown)
VH: B4 VH with S30T
VL: B4 VL with D70Q
EC50 [2]: 0.305 nM

B20: Hu50C5-10 (antibody, V domains shown)
VH: B4 VH with I48M, T68V, L70I
VL: B4 VL with A43S, D70Q
EC50 [1]: 1.03 nM

B21: Hu50C5-14 (antibody, V domains shown)
VH: B4 VH with T68V, L70I
VL: B4 VL with D70Q
EC50 [1]: 1.94 nM

B22: Hu50C5-23 (antibody, V domains shown)
VH: B4 VH with S30T
VL: B4 VL
EC50 [2]: 0.356 nM

B23: Hu50C5-11 (antibody, V domains shown)
VH: B4 VH with T68V, L70I
VL: B4 VL with V48I, D57G
EC50 [1]: 0.462 nM

B24: Hu50C5-15 (antibody, V domains shown)
VH: B4 VH with T68V, L70I
VL: B4 VL with A43S, D70Q
EC50 [2]: 2.72 nM

B25: Hu50C5-5 (antibody, V domains shown)
VH: B4 VH with Y27G, I28T, I48M, T68V, L70I
VL: B4 VL with A43S, D70Q
EC50 [1]: 0.534 nM

B26: 23F4 chimera (antibody, V domains shown)
VH: QVQLQQSGPELVKPGTSMKISCKTSDYTLTSHYLHWVKQRPGQGLEWIGWIFPGDDKTKYNEKFKGKATLTSDKTSNTAYMQLSSLTSEESAVYFCARGTKYLNWNFDVWGTGTTVTVSS
VL: DIVLTQPQKFLSTSVGDRVSVTCKANQNVGTTLAWYQQKPGQSPKALIYSASYRYSGVPDRFTGSGSGTDFTLTISNVQSEDLAEYFCHQYTTYPLTFGGGTKLEIK
EC50 [3]: 0.081 nM and 0.0923 nM
EC50 [4]: 0.092 nM and 0.0881 nM

B27: Hu23F4-35 (antibody, V domains shown)
VH: EVQLVQSGAEVKKPGASVKVSCKASGYTFTSHYLHWVRQAPGQGLEWIGWIFPGDDKTKYNEKFKGRATLTSDTSISTAYMELSRLRSDDTAVYYCARGTKYLNWNFDVWGQGTTVTVSS
VL: DIQLTQSPSFLSASVGDRVTITCKANQNVGTTLAWYQQKPGKSPKALIYSASYRYSGVPDRFSGSGSGTDFTLTISSLQPEDFATYFCHQYTTYPLTFGGGTKVEIK
EC50 [4]: 0.0624 nM

B28: Hu23F4-32 (antibody, V domains shown)
VH: B27 VH
VL: B27 VL with S43A, A46L, D60S, D70E, F87Y
EC50 [4]: 0.0873 nM

B29: Hu23F4-33 (antibody, V domains shown)
VH: B27 VH
VL: B27 VL with S43A, D60S, D70E, F87Y
EC50 [4]: 0.0954 nM

B30: Hu23F4-29 (antibody, V domains shown)
VH: B27 VH with I48M, A68V
VL: B27 VL with S43A, D60S, D70E, F87Y
EC50 [4]: 0.0736 nM

B31: Hu23F4-36 (antibody, V domains shown)
VH: B27 VH with G26D, F29L
VL: B27 VL with S43A, A46L, D60S, D70E, F87Y
EC50 [4]: 0.0384 nM

B36: Hu23F4-30 (antibody, V domains shown)
VH: B27 VH with I48M, A68V
VL: B27 VL with S43A, F87Y
EC50 [4]: 0.0411 nM

B38: Hu23F4-26 (antibody, V domains shown)
VH: B27 VH with I48M, A68V, L70M
VL: B27 VL with S43A, F87Y
EC50 [4]: 0.0348 nM

B39: Hu23F4-28 (antibody, V domains shown)
VH: B27 VH with I48M, A68V
VL: B27 VL with S43A, A46L, D60S, D70E, F87Y
EC50 [4]: 0.101 nM

Continued, values first:

EC50 [1]: 0.464 nM and 0.483 nM
EC50 [2]: 0.547 nM
B1: 50C5 chimera (antibody, V domains shown)
VH: QVQLQQSAAELVRPGASVKMSCKASGYIFTPYSIHWIKQRPGQGLEWIGYINPSTGYIEYNQHFKDRTTLTADKSSSTAYMQLRSLTSEDSAVYYCARGGDYEGYFDYWGQGTTLTVSS
VL: DIQMTQSPDSLSASVGETVTITCRLNENIYSFLAWYQQRQGKSPQLLVYNAETLAEDVPSRFSGSGSGTQFSLKISSLQTDDFGTYYCQQHYGTPYTFGGGTNLEIE

EC50 [1]: 3.52 nM
B2: Hu50C5-13 (antibody, V domains shown)
VH: B4 VH with T68V, L70I
VL: B4 VL

EC50 [1]: 0.438 nM
B3: Hu50C5-8 (antibody, V domains shown)
VH: B4 VH with I48M, T68V, L70I
VL: B4 VL

EC50 [1]: 3.24 nM
B6: Hu50C5-12 (antibody, V domains shown)
VH: B4 VH with T68V, L70I
VL: B4 VL with D57G

EC50 [2]: 0.889 nM
B7: Hu50C5-22 (antibody, V domains shown)
VH: B4 VH with S30T
VL: B4 VL with D57G

EC50 [1]: 0.568 nM
B9: Hu50C5-9 (antibody, V domains shown)
VH: B4 VH with I48M, T68V, L70I
VL: B4 VL with D70Q

EC50 [1]: 0.345 nM
B10: Hu50C5-6 (antibody, V domains shown)
VH: B4 VH with I48M, T68V, L70I
VL: B4 VL with V48I, D57G

EC50 [2]: 0.272 nM
B12: Hu50C5-19 (antibody, V domains shown)
VH: B4 VH
VL: B4 VL with D70Q

EC50 [2]: 0.305 nM
B15: Hu50C5-20 (antibody, V domains shown)
VH: B4 VH
VL: B4 VL with A43S, D70Q

EC50 [1]: 1.85 nM
B18: Hu50C5-3 (antibody, V domains shown)
VH: B4 VH with Y27G, I28T, I48M, T68V, L70I
VL: B4 VL

EC50 [1]: 1.18 nM
B19: Hu50C5-4 (antibody, V domains shown)
VH: B4 VH with Y27G, I28T, I48M, T68V, L70I
VL: B4 VL with D70Q

EC50 [4]: 0.0907 nM
B32: Hu23F4-24 (antibody, V domains shown)
VH: B27 VH with I48M, A68V, L70M
VL: B27 VL with S43A, A46L, D60S, D70E, F87Y

EC50 [4]: 0.047 nM
B33: Hu23F4-23 (antibody, V domains shown)
VH: B27 VH with I48M, A68V, L70M, S72R
VL: B27 VL

EC50 [4]: 0.0268 nM
B34: Hu23F4-25 (antibody, V domains shown)
VH: B27 VH with I48M, A68V, L70M
VL: B27 VL with S43A, D60S, D70E, F87Y

EC50 [4]: 0.0977 nM
B35: Hu23F4-34 (antibody, V domains shown)
VH: B27 VH
VL: B27 VL with S43A, F87Y

EC50 [4]: 0.136 nM
B37: Hu23F4-38 (antibody, V domains shown)
VH: B27 VH with G26D, F29L
VL: B27 VL with S43A, F87Y

EC50 [4]: 0.0384 nM
B40: Hu23F4-27 (antibody, V domains shown)
VH: B27 VH with I48M, A68V, L70M
VL: B27 VL

EC50 [4]: 0.127 nM
B41: Hu23F4-37 (antibody, V domains shown)
VH: B27 VH with G26D, F29L
VL: B27 VL with S43A, D60S, D70E, F87Y

EC50 [4]: 0.0424 nM
B42: Hu23F4-31 (antibody, V domains shown)
VH: B27 VH with I48M, A68V
VL: B27 VL
